For this series, the system named is Nc1ccn([C@@H]2O[C@H](CO)[C@@H](O)C2(F)F)c(=O)n1. Briefly: cells, lysate or membranes named. Conditions: other: ATP donor, 10 nM dCK, no masitinib.

Sequence of human deoxycytidine kinase (dCK) (Homo sapiens) (chain, as listed by the source): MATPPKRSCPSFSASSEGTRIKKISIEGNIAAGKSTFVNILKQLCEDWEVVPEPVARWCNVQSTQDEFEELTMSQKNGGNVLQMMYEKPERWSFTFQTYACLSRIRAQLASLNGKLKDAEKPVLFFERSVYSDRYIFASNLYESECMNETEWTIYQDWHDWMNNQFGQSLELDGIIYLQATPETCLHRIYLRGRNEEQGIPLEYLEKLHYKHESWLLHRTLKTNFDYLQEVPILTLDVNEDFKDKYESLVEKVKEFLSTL

What is called Km is the concentration of substrate that gives half-maximal velocity. Consider “human deoxycytidine kinase (dCK) (Homo sapiens)”, for which the Km worked out at 1 ± 0.3 µM.

The record behind these values is patent US20150290235A1, “USE OF SMALL MOLECULE INHIBITORS/ACTIVATORS IN COMBINATION WITH (DEOXY)NUCLEOSIDE OR (DEOXY)NUCLEOTIDE ANALOGS FOR TREATMENT OF CANCER AND HEMATOLOGICAL MALIGNANCIES OR VIRAL INFECTIONS” (AB SCIENCE, priority 2012, published 2015).
